Measured values: patent US20130315910A1 (Xencor, published 2013)

T1: human FcγRIIb receptor protein (R&D Systems) (human, UniProt P31994 46-217)
T1 construct: Bought protein injected over captured antibody in Biacore; also called CD32b
T1 sequence (looked up): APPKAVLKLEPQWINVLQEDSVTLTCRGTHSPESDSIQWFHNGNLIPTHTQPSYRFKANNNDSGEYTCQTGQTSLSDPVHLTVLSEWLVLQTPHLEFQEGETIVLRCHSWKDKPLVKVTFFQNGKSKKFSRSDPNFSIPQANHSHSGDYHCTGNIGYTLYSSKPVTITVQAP

T2: human FcγRIIa (131R), His- and GST-tagged (human, UniProt P12318 34-217)
T2 construct: Expressed in HEK293T cells, purified by nickel chromatography; also called R131 FcγRIIa; not shown: 6xHis and GST tags of the pTT5 vector
T2 sequence (looked up): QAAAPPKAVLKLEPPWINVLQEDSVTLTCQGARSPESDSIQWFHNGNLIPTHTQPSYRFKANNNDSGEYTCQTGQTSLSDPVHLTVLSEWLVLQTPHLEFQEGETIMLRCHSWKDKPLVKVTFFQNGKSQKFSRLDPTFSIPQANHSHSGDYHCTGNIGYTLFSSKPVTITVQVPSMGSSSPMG

T3: cynoFcγRIIb (Macaca fascicularis, UniProt A0A140HDP4)
T3 construct: extracellular region, C-terminal His- and GST-tag; also called cynomolgus monkey FcγRIIb
T3 sequence (receptor extracellular region): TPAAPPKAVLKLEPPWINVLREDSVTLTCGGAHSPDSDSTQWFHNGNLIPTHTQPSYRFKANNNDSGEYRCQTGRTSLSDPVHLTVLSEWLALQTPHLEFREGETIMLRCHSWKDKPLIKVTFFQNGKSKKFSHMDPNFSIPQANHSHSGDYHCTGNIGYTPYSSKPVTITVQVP

B1: G236D/H268D (antibody, human IgG1, kappa)
heavy: not shown
light: DIVMTQSPATLSLSPGERATLSCRSSKSLQNVNGNTYLYWFQQKPGQSPQLLIYRMSNLNSGVPDRFSGSGSGTEFTLTISSLEPEDFAVYYCMQHLEYPITFGAGTKLEIKRTVAAPSVFIFPPSDEQLKSGTASVVCLLNNFYPREAKVQWKVDNALQSGNSQESVTEQDSKDSTYSLSSTLTLSKADYEKHKVYACEVTHQGLSSPVTKSFNRGEC
notes: HuAM4G7 anti-CD19 IgG1 (m1) with these Fc substitutions, EU index; copies: 2 + 2
B2: S267D/A327E (antibody, human IgG1, kappa)
heavy: not shown
light: B1 light
notes: as for B1
B3: L234I (antibody, human IgG1, kappa)
heavy: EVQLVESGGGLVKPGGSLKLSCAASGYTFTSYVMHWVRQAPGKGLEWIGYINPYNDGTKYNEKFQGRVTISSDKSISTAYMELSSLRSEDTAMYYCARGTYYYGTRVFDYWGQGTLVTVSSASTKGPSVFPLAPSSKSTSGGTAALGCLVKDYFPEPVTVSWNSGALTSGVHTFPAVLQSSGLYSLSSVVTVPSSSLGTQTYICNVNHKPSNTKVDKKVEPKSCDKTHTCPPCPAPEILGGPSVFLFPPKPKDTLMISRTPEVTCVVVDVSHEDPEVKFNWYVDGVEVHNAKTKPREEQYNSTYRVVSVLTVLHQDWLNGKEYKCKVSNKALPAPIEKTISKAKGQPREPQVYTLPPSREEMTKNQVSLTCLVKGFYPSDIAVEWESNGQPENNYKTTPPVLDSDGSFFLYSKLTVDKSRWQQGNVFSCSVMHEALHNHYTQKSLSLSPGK
light: B1 light
notes: HuAM4G7 anti-CD19 IgG1 (m1) with this Fc substitution, EU index; copies: 2 + 2
B4: L235H (antibody, human IgG1, kappa)
heavy: not shown
light: B1 light
notes: as for B3
B5: L235S (antibody, human IgG1, kappa)
heavy: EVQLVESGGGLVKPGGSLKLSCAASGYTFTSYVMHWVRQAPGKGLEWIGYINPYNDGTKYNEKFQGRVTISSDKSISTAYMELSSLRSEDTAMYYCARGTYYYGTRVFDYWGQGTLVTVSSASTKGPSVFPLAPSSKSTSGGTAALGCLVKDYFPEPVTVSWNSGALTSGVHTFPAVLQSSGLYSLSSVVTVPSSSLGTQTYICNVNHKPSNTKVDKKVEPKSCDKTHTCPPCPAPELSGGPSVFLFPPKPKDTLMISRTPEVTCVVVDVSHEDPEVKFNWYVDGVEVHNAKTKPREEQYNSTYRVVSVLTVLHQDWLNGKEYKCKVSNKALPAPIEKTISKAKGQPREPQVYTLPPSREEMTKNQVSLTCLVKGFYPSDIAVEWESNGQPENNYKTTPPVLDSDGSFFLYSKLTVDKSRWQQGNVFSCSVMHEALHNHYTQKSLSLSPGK
light: B1 light
notes: as for B3
B6: L235W (antibody, human IgG1, kappa)
heavy: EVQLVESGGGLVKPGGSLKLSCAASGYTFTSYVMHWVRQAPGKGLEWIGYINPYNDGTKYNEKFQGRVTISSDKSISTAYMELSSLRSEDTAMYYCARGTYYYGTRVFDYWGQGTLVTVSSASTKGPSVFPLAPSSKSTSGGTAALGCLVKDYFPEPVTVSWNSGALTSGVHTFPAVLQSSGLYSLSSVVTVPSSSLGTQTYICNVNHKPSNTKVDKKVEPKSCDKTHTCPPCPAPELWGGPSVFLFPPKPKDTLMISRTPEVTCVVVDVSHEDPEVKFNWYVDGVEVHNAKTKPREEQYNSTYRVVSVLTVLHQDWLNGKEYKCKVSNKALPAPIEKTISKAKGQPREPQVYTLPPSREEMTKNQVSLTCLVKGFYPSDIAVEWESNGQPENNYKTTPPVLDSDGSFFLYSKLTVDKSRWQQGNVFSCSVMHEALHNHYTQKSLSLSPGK
light: B1 light
notes: as for B3
B7: G237Y (antibody, human IgG1, kappa)
heavy: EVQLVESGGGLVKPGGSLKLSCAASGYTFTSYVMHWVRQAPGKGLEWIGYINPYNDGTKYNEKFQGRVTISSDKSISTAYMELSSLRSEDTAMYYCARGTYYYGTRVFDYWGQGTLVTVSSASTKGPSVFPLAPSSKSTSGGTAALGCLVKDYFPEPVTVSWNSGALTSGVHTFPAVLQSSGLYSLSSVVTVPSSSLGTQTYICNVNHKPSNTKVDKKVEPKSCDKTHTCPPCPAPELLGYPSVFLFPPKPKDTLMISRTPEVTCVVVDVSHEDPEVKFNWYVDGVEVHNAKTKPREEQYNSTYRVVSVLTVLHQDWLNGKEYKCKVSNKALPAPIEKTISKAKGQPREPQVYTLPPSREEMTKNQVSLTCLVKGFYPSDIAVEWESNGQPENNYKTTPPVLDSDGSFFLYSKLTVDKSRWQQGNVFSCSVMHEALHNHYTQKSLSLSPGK
light: B1 light
notes: as for B3
B8: G237V (antibody, human IgG1, kappa)
heavy: not shown
light: B1 light
notes: as for B3
B9: L234Y (antibody, human IgG1, kappa)
heavy: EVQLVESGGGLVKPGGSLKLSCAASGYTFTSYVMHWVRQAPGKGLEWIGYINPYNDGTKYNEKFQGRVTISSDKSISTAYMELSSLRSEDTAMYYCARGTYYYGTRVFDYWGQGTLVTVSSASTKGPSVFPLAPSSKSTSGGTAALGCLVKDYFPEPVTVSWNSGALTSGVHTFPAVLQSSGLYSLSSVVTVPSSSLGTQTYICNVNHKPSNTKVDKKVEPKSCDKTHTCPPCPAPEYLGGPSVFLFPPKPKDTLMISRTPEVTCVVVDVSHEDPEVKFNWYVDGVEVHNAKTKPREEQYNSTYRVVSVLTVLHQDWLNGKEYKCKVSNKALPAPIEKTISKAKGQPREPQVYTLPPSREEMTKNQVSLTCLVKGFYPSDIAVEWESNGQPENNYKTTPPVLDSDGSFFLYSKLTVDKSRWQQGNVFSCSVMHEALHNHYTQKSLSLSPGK
light: B1 light
notes: as for B3
B10: G236L (antibody, human IgG1, kappa)
heavy: not shown
light: B1 light
notes: as for B3
B11: G237L (antibody, human IgG1, kappa)
heavy: not shown
light: B1 light
notes: as for B3
B12: G236H (antibody, human IgG1, kappa)
heavy: not shown
light: B1 light
notes: as for B3
B13: G236K (antibody, human IgG1, kappa)
heavy: not shown
light: B1 light
notes: as for B3
B14: L234S (antibody, human IgG1, kappa)
heavy: not shown
light: B1 light
notes: as for B3
B15: G236M (antibody, human IgG1, kappa)
heavy: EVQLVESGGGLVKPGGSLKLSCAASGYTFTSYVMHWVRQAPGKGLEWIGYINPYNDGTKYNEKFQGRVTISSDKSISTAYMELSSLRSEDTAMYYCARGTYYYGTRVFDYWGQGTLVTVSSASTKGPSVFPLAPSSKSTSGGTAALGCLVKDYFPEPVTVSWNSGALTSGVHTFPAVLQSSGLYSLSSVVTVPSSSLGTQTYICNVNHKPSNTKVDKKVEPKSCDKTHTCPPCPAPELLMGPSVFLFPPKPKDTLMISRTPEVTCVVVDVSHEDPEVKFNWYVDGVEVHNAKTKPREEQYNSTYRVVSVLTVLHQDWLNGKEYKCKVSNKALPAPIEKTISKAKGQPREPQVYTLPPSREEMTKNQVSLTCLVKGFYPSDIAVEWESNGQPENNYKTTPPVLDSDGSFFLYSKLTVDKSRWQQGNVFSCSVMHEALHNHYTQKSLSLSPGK
light: B1 light
notes: as for B3
B16: S267D/A327D (antibody, human IgG1, kappa)
heavy: not shown
light: B1 light
notes: as for B1
B17: G236I (antibody, human IgG1, kappa)
heavy: not shown
light: B1 light
notes: as for B3
B18: S267E/H268D (antibody, human IgG1, kappa)
heavy: not shown
light: B1 light
notes: as for B1
B19: G237Q (antibody, human IgG1, kappa)
heavy: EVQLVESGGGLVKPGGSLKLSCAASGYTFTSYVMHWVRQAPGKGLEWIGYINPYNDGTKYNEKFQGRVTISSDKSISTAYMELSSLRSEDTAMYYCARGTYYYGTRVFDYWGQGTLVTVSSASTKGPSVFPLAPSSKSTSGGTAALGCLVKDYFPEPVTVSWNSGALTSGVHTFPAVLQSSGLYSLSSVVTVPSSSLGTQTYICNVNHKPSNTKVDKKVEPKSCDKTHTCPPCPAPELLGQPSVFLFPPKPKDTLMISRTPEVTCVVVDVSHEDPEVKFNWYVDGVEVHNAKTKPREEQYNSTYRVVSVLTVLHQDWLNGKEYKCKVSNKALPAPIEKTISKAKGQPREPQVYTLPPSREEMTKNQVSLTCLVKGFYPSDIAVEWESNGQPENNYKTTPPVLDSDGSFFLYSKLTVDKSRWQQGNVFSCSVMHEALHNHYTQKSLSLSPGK
light: B1 light
notes: as for B3
B20: L234P (antibody, human IgG1, kappa)
heavy: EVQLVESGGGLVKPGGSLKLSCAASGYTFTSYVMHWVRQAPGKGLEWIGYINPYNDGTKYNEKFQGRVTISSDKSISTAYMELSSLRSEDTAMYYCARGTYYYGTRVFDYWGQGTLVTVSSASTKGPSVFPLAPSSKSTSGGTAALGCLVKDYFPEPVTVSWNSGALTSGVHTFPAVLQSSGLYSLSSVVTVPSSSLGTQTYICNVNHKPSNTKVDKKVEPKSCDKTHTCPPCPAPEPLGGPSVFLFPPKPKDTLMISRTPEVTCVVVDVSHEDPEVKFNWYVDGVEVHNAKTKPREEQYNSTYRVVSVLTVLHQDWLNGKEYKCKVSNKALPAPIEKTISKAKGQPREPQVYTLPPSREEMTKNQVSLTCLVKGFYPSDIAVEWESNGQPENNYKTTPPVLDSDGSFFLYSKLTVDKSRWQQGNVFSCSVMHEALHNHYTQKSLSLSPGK
light: B1 light
notes: as for B3
B21: G236Q (antibody, human IgG1, kappa)
heavy: not shown
light: B1 light
notes: as for B3
B22: L235P (antibody, human IgG1, kappa)
heavy: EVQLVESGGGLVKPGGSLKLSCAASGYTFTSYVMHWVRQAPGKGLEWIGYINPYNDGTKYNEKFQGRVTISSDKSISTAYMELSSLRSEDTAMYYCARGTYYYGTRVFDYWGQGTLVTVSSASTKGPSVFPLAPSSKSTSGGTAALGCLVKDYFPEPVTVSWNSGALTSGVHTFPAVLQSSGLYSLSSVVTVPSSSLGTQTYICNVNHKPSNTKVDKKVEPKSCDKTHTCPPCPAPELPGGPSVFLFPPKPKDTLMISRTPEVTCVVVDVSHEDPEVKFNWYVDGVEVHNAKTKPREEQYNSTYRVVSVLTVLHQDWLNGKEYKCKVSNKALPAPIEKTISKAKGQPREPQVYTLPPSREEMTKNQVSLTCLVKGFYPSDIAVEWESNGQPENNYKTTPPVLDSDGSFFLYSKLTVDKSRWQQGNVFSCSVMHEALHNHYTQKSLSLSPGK
light: B1 light
notes: as for B3
B23: L235T/S267E (antibody, human IgG1, kappa)
heavy: not shown
light: B1 light
notes: as for B1
B24: L234F/G236N (antibody, human IgG1, kappa)
heavy: not shown
light: B1 light
notes: as for B1
B25: G236Y (antibody, human IgG1, kappa)
heavy: not shown
light: B1 light
notes: as for B3
B26: L235S/S267E (antibody, human IgG1, kappa)
heavy: not shown
light: B1 light
notes: as for B1
B27: L235Q (antibody, human IgG1, kappa)
heavy: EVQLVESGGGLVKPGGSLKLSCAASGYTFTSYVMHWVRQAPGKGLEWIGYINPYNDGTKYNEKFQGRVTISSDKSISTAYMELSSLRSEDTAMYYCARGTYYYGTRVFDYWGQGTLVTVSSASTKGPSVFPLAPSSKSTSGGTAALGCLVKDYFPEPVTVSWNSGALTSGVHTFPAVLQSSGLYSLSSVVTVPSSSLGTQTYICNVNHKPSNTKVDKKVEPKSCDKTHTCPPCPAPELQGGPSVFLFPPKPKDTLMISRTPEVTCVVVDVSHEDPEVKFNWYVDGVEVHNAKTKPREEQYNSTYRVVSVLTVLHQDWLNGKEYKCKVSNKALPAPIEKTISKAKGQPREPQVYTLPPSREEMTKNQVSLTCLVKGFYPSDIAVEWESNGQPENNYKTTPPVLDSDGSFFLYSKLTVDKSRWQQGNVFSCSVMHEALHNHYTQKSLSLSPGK
light: B1 light
notes: as for B3
B28: L234E/H268D (antibody, human IgG1, kappa)
heavy: not shown
light: B1 light
notes: as for B1
B29: L235Y/S267D (antibody, human IgG1, kappa)
heavy: not shown
light: B1 light
notes: as for B1
B30: G237P (antibody, human IgG1, kappa)
heavy: not shown
light: B1 light
notes: as for B3
B31: G236W (antibody, human IgG1, kappa)
heavy: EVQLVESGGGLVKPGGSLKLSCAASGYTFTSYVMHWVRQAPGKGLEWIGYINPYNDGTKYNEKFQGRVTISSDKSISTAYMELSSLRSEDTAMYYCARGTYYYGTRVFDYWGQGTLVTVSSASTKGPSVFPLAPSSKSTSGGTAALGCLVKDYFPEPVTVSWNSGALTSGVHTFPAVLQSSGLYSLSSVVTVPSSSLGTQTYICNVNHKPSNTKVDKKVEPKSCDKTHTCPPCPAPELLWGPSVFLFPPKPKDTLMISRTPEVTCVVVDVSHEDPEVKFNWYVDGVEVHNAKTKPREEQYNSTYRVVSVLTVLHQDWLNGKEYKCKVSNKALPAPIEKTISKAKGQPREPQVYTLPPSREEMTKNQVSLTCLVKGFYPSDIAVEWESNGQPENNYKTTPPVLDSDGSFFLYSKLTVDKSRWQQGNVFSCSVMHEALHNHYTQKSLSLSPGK
light: B1 light
notes: as for B3
B32: L234V (antibody, human IgG1, kappa)
heavy: not shown
light: B1 light
notes: as for B3
B33: S267D/H268E (antibody, human IgG1, kappa)
heavy: not shown
light: B1 light
notes: as for B1

These binders were tested against T1, human FcγRIIb receptor protein (R&D …) (assay: SPR).
Method: (§1) Variants were screened for receptor affinity using Biacore™ technology, also referred to as Biacore herein, a surface plasmon resonance (SPR) based technology for studying biomolecular interactions in real time. SPR measurements were performed using a Biacore 3000 instrument (Biacore, Piscataway, N.J.). A protein A/G (Pierce Biotechnology) CM5 biosensor chip (Biacore) was generated using a standard primary amine coupling protocol. All measurements were performed using HBS-EP buffer (10 mM HEPES pH 7.4, 0.15 M NaCl, 3 mM EDTA, 0.005% vol/vol surfactant P20, Biacore). Antibodies at 20 nM or 50 nM in HBS-EP buffer were immobilized on the protein A/G surface and FcγRs were injected. After each cycle, the surface was regenerated by injecting glycine buffer (10 mM, pH 1.5). Data were processed by zeroing time and response before the injection of FcγR and by subtracting appropriate nonspecific signals (response of reference channel and injection of running buffer). Kinetic analyses were performed by global fitting of binding data with a 1:1 Langmuir binding model using BIAevaluation software (Biacore).

| Fold vs WT IgG1 [fold] | Kd [µM] | binding result | Binder |
| --- | --- | --- | --- |
| 11.6 | 0.126 | – | B1 |
| 12.1 | 0.121 | – | B2 |
| 0.108 | 13.6 | – | B3 |
| 0.734 | 2 | – | B4 |
| 0.0147 | 100 | – | B5 |
| – | – | no binding | B6 |
| 0.33 | 4.45 | – | B7 |
| 0.147 | 10 | – | B8 |
| 0.0237 | 61.9 | – | B9 |
| – | – | no binding | B10 |
| – | – | no binding | B11 |
| – | – | no binding | B12 |
| 0.0147 | 100 | – | B13 |
| 0.192 | 7.64 | – | B14 |
| 0.147 | 10 | – | B15 |
| 6.89 | 0.213 | – | B16 |
| – | – | no binding | B17 |

| Fold vs WT IgG1 [fold] | Kd [µM] | binding result | Binder |
| --- | --- | --- | --- |
| 33.3 | 0.044 | – | B18 |
| 0.147 | 10 | – | B19 |
| 0.0644 | 22.8 | – | B20 |
| 0.147 | 10 | – | B21 |
| 0.00585 | 251 | – | B22 |
| 2.37 | 0.619 | – | B23 |
| – | – | no binding | B24 |
| – | – | no binding | B25 |
| – | 37.8 | – | B26 |
| – | – | no binding | B27 |
| 5.89 | 0.249 | – | B28 |
| 15.9 | 0.0922 | – | B29 |
| 0.0147 | 100 | – | B30 |
| 0.147 | 10 | – | B31 |
| 0.456 | 3.22 | – | B32 |
| 17.8 | 0.0826 | – | B33 |

The binders below were run against T2, human FcγRIIa (131R), His- and … (assay: SPR).
Method: as §1

| Fold vs WT IgG1 [fold] | Kd [µM] | binding result | Binder |
| --- | --- | --- | --- |
| 0.0554 | 15.5 | – | B3 |
| 0.756 | 1.14 | – | B4 |
| 0.00859 | 100 | – | B5 |
| – | – | no binding | B6 |
| 0.902 | 0.952 | – | B7 |
| 0.0342 | 25.1 | – | B8 |
| 0.0511 | 16.8 | – | B9 |
| – | – | no binding | B10 |
| – | – | no binding | B11 |
| 0.135 | 6.35 | – | B12 |
| 0.00859 | 100 | – | B13 |
| 0.693 | 1.24 | – | B14 |
| 0.0859 | 10 | – | B15 |
| – | – | no binding | B17 |
| 0.0859 | 10 | – | B19 |
| 0.0141 | 60.7 | – | B20 |
| 0.0859 | 10 | – | B21 |
| 0.122 | 7.01 | – | B22 |
| 3.06 | 0.281 | – | B23 |
| – | – | no binding | B24 |
| – | – | no binding | B25 |
| 2.04 | 0.42 | – | B27 |
| 0.00859 | 100 | – | B30 |
| 0.0859 | 10 | – | B31 |
| 0.134 | 6.42 | – | B32 |

The binders below were run against T3, cynoFcγRIIb (assay: SPR).
Method: as §1
Variant antibodies were tested for their affinity to mouse or cynologous monkey FcγRs using Biacore SPR as described above. Specifically, antibodies were first immobilized on a protein A/G chip to high density, and then followed by injections of the extracellular domain of the mouse or cynologous monkey FcγR of interest. Both association and dissociation phases were tracked in real time using the Biacore technology.

| Fold vs WT IgG1 (Kd) [fold] | Binder |
| --- | --- |
| 0.832 | B4 |
| 1.44 | B6 |
| 1.01 | B9 |
